From paper PMC7509637 (Advanced Science, 2020)
Entries after “also recorded” stand apart in the source; their conditions may differ.

B1: FapCS: FapC seeds obtained by sonication of mature FapC fibrils (P. aeruginosa) (protein)
chain: GNEGGWHPPKPNPQSNNKGGATALVVDTQQNYNNKVSNFGTLNNASVSGSIKDASGNVGVNVAAGDNNQQANAAALASADASFVFGTATASTSVLQSGYGNTLNNYSNPNTASLSNSANNVSGNLGVNVAAGNFNQQKNDLAAAVSNGQYSTAGSAASQTSTGNTTVNSANYAYGGTYVSLKLNADGSYKGTSDQIGDVYLDTWEGQTHPGGSNTGHIDVDSQAQGAKDLNHDGGAFAFKEKGDVDLKGTVSGFIPAIVGFKTPVTNNASLSNSLQNVSGNVGVNIAAGGGNQQSNSLSIAAGCSSCPAGGESLGF

Tests used:
zebrafish larvae = experiment: Congo red imaging of Aβ fibrillization in zebrafish larval brain; type: in vivo, zebrafish (AB, Danio rerio); conditions: for Congo red fluorescence / Aβ fibrillization in larval brain (in words): 2 d postinjection
Method: Aβ (HFIP‐treated) was dissolved in PBS (pH 7.4) to make a stock solution. Aβ (100 × 10^−15 M) was injected into the cerebroventricular space of one week old zebrafish larvae. Aβ with FapCS was injected at a 10:1 molar ratio (Aβ:FapCS, 100 × 10^−15:10 × 10^−15 M). PBS alone and untreated larvae were used as negative controls. Zebrafish larvae were anesthetized by adding a few drops of tricaine (0.4%) in the petri dish. When larvae stopped to move in response to the tapping stimuli, the larvae were transferred to an injection template made from 1% agarose gel. Microinjection of Aβ was performed with a calibrated microneedle and pneumatic microinjection system (PV830 WPI), under a stereomicroscope. The injection pressure was set to 20 psi, the injection volume was 10 nL, and the injections were made with a micromanipulator. The tip of the needle was inserted into the ventricular space of larvae and penetration across the soft skin of dorsal tissue (central meeting point of both telencephalons) was not more than 0.3 mm. After microinjection, the larvae were transferred to the fresh Holtfreter's buffer in petri dish and incubated at 28 ± 0.5 °C for further observation.
To monitor Aβ fibrillization in the brain of zebrafish larvae, the Aβ or Aβ + FapCS injected larvae were further injected with Congo red 2 days or one week posttreatment. Congo red (100 × 10^−15 M) was injected to the cerebroventricular space of the zebrafish larvae and placed back in Holtfreter's buffer (1 h) to allow staining of Aβ plaques in the brain tissues of larvae and elimination of excess dye. Whole mount imaging of zebrafish larvae was performed via the brightfield and red fluorescence channels of a fluorescence microscope. All images were captured under the same exposure and intensity settings of the microscope. Relative red fluorescence intensities were measured from the images by using Fiji ImageJ and represented as fraction of 1. Aβ at one week was considered as a positive control (100% or fraction 1) while buffer only was considered as a negative control (0% or fraction 0).

adult zebrafish brain [1] = experiment: Synaptophysin IHC in brain of adult zebrafish; type: in vivo, zebrafish (AB, Danio rerio); conditions: for synaptophysin-positive synapses/cells (in words): n = 3
Method: (§1) Adult zebrafish (10 months) were employed for the study. Prior to microinjection, adult zebrafish were anesthetized by placing them in a beaker filled with ice‐chilled tricaine (0.01% in Holtfreter's buffer) for 20 s. The samples of Aβ alone and Aβ with FapCS or bacterial biofilm fragments were injected to the cerebroventricular space of adult fish with a 1 µL Hamilton glass syringe. The concentration of the Aβ peptide was 40 × 10^−6 M (in PBS, pH 7.4) while FapCS or biofilm fragments were included at a 10:1 ratio (Aβ:FapCS or biofilm fragments). The needle penetrated between left and right telencephalon for not more than 1 mm and injection volume was 1 µL. The syringe was washed with ethanol and PBS in between the injections. The injections were made under a stereomicroscope and fish were held in place with forceps. After microinjection, the fish was placed back in the water tank for recovery.
(§2) The deposition of Aβ, depletion of synaptophysin positive cells and TUNEL assay were measured by IHC. The adult fish, at 4 d or 2 weeks postinjection with Aβ and Aβ with FapCS or biofilm fragments, were euthanized by placing in ice‐chilled tricaine (0.4% in Holtfreter's buffer) for 1 min. The head of the fish was separated at pectoral fin point with a sharp blade and fixed in paraformaldehyde as described in the “Animal husbandry and ethics statement” section. The fixed heads were dehydrated by dipping in gradual concentration of ethanol, i.e., 20%, 40%, 60%, 80%, and 100% with 10 min at each step. The heads were treated with 20% sucrose overnight, mounted with Tissue Trek OCT mounting medium at −20 °C. The heads were then sectioned into […] section with a cryostat. The sections were mounted on a gelatinized glass slide and immunostained with antibodies. The sections were dried, washed thrice in PBS (pH 7.4), and TritonX‐100 (0.05% in PBS) for 5 min each. […] The sections were imaged by a fluorescence microscope and fluorescence intensities were measured from the images with Fiji ImageJ analysis.

Aβ = molecular target: T1, Aβ (Homo sapiens, UniProt P05067); experiment: TEM imaging of Aβ with FapC species or bLgS; conditions: 12 h incubation, uranyl acetate negative stain
T1 construct: purchased Anaspec Inc
Method: Aβ incubated in the presence or absence of FapCS, FapC monomers, FapC fibrils or bLgS were subjected to TEM imaging. After incubation for 12 h, a drop of sample was applied on a glow‐discharged carbon‐coated copper grid. After 1 min, the sample was blotted and then negatively stained with uranyl acetate (1%) for 30 s. The dried grid was then imaged with a Technei F20 TEM at 200 kV. For AFM, a drop of sample was placed on freshly cleaved mica surface and rinsed with water after 2 min and dried with pressurized air. The sample was scanned with an AFM (Nanoscope VIII Multimode Scanning Force Microscopes, Bruker), covered with an acoustic hood to minimize the vibrational noise. Images were acquired under the tapping mode with a silicon nitride cantilever (Bruker). AFM images were processed with Nanoscope Analysis 1.5 software to flatten the background and to calculate the statistical parameters.

adult zebrafish brain [2] = experiment: TUNEL assay in brain of adult zebrafish; type: in vivo, zebrafish (AB, Danio rerio); conditions: for TUNEL assay, DNA damage / cell death (in words): n = 3
Method: as §1, §2

[3] = FapCS alone, 4 × 10^−6 M, Figure S13

Molecule | Congo red fluorescence / Aβ fibrillization in larval brain (in words) (zebrafish larvae) | synaptophysin-positive synapses/cells (in words) (adult zebrafish brain [1]; 2 weeks postinjection) | synaptophysin-positive synapses/cells (in words) (adult zebrafish brain [1]; 4 d postinjection) | TEM observation (Aβ) | TUNEL assay, DNA damage / cell death (in words) (adult zebrafish brain [2]; 2 weeks postinjection) | TUNEL assay, DNA damage / cell death (in words) (adult zebrafish brain [2]; 4 d postinjection) | Congo red fluorescence in larval brain (in words) (zebrafish larvae; one week postinjection, Figure S12A) | synapse health (in words) (adult zebrafish brain [1]; [3]) | DNA damage / toxicity (in words) (adult zebrafish brain [2]; [3])
amyloid beta [Aβ] | no fibrillization was observed | neurodegeneration of synaptophysin positive cells; also recorded: degenerate synaptophysin‐positive synapses | synaptophysin positive neuronal cells | prefibrillary oligomers | neuronal cell death; also recorded: DNA damage per the TUNEL assay | negative TUNEL assay |  |  | 
B1 | insignificant fluorescence was observed; also recorded: did not show any retention of Congo red fluorescence in the brain |  |  | appeared to adsorb onto the growing Aβ fibers |  |  | insignificant fluorescence was observed | Healthy synapses | no DNA damage; also recorded: non‐toxic nature
